Results as given in US20140024592A1, “Modified Relaxin Polypeptides” (Howard Florey Institute of Experimental Physiology and …, priority 2010, published 2014).
No end group written: not given here.

T1: RXFP1 receptor (UniProt Q9HBX9 1-757, limits assumed)
T1 sequence (looked up): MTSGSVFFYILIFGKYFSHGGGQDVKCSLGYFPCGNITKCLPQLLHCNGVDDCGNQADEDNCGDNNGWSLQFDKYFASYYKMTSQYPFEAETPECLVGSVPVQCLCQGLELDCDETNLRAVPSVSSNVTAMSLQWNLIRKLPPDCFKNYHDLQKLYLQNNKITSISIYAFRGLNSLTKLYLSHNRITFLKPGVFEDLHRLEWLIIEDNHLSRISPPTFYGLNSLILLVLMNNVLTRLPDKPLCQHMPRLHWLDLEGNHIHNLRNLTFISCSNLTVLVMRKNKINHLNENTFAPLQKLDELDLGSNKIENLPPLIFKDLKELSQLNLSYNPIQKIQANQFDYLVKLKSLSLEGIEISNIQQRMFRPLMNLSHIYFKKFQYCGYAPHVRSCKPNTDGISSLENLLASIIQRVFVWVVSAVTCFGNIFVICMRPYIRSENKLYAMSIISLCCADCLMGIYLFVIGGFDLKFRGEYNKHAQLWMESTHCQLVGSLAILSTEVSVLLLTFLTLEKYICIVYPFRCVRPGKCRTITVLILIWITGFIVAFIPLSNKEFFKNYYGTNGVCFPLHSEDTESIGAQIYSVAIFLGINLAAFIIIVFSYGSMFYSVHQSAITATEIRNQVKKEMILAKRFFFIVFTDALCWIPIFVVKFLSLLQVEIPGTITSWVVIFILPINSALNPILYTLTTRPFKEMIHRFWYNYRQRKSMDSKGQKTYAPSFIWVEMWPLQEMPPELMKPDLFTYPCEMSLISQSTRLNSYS

T2: RXFP3 (Homo sapiens, UniProt Q9NSD7)
T2 construct: expressed in transfected cells; host or cells: CHO-K1
T2 sequence (Q9NSD7 1-469): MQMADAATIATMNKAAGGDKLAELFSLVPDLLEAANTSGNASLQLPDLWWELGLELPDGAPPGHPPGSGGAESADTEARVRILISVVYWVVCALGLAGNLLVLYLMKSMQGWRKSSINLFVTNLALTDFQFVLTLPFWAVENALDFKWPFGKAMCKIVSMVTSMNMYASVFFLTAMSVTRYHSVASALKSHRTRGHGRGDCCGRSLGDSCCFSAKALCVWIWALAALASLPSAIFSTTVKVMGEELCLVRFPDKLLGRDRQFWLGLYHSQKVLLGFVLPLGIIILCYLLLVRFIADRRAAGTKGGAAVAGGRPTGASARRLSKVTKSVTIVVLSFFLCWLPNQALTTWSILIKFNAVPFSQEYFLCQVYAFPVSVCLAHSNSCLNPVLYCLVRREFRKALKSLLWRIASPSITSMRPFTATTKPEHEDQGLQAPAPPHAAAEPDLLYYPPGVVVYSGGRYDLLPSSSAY

T3: RXFP3 receptor (UniProt Q9NSD7 1-469, limits assumed)
T3 construct: whole, on cells; also called GPCR135
T3 sequence (looked up): T2 sequence (Q9NSD7 1-469)

B1: analogue 18 (peptide)
chain 1: CKWGASKSEISSLC
chain 2: RLCGREFIRAVIFTCGGSRW
notes: Synthetic
B2: native human relaxin-3 (H3 relaxin) (ligand)
chain 1: DVLAGLSSSCCKWGCSKSEISSLC
chain 2: RAAPYGVRLCGREFIRAVIFTCGGSRW
modifications: disulfide (positions not given here); also: one intra-A-chain and two inter-chain disulphide bonds, places not given here
notes: Two-chain peptide; one intra-A-chain and two inter-chain disulphide bonds; also called native relaxin-3
B3: analogue 14 (peptide)
chain 1: DVLAGLSSSACKWGASKSEISSLC
chain 2: RAAPYGVRLCGREFIRAVIFTCGGSRW
modifications: disulfide (positions not given here)
notes: Synthetic; no intra-A-chain disulphide, two inter-chain disulphides kept
B4: analogue 15 (peptide)
chain 1: CKWGASKSEISSLC
chain 2: RAAPYGVRLCGREFIRAVIFTCGGSRW
modifications: disulfide (positions not given here)
notes: Synthetic; two inter-chain disulphides, no intra-A-chain disulphide; also called [R3A(11-24,C15→A)B]; RXFP3-selective agonist, analogue 2
B5: human INSL5 (ligand)
chain 1: QDLQTLCCTDGCSMTDLSALC
chain 2: KESVRLCGLEYIRTVIYICASSRW
notes: mature; Native receptor ligand used as comparator at RXFP4; also called hINSL5; native INSL5
B6: analogue 17 (peptide)
chain 1: CKWGASKSEISSLC
chain 2: GVRLCGREFIRAVIFTCGGSRW
notes: Synthetic
B7: analogue 19 (peptide)
chain 1: CKWGASKSEISSLC
chain 2: CGREFIRAVIFTCGGSRW
notes: Synthetic

What was measured:
[1] = system: human dermal fibroblasts (BJ3 cells) which express RXFP1; assay: TGF-β1-induced collagen expression in human dermal fibroblasts (hydroxyproline content); assay type: cell-based; details: TGF-β1 2 ng/mL plus peptide 100 ng/mL, 72 hr
Procedure: The deposited collagen into the cell layer was hydrolysed and analysed for hydroxyproline content, as previously described (Samuel et al., 1996, Endocrinology 137:3884-3890). Hydroxyproline values were then converted to total collagen content by multiplying by a factor of 6.94 (based on hydroxyproline representing approximately 14.4% of the amino acid composition of collagen in most mammalian tissues). These experiments were performed 3-4 separate times in duplicate.

[2] = biological target: T1, RXFP1 receptor; assay: cell-based or functional assay
[3] = biological target: T2, RXFP3; assay: Inhibition of forskolin-induced cAMP accumulation in RXFP3 expressing CHO-K1 cells (cAMP reporter gene assay); assay type: cell-based; details: CHO-K1, read-out: forskolin-induced cAMP production inhibited to
Procedure: CHO-K1 cells were subcultured in clear 96 well plates (10,000 cells/well/200 μl media) and after 24 h, they were co-transfected with pCRE-8-galactosidase reporter plasmid. 24 hours later, cells were treated with 5 μM forskolin together with increasing concentration of relaxin-3 polypeptides. […] The stimulation was carried out for 6 h after which the media was aspirated and the cells were frozen at −80° C. overnight. The cells were thawed to room temperature and the amount of cAMP-induced β-galactosidase expression was measured by adding 25 μl of 0.1× buffer A (100 mM Na2HPO4 (pH 8.0), 2 mM MgSO4, 0.1 mM MnCl2) and shaking at room temperature for 10 minutes to hypotonically lyse the cells. Then 100 μl of buffer B (similar to buffer A with additional 0.5% Triton X-100 and 40 mM β-mercaptoethanol) was added to each well with shaking for 10 minutes at room temperature. Finally, 25 μl of substrate for 6-galactosidase (chlorophenol red β-D galactopyranoside) was added to each well with shaking until the colour change was observed. The absorbance was measured at 570 nm on Victor^3 plate reader (PerkinElmer, Glen Waverly, VIC). The data were analysed using GraphPad PRISM 4 (GraphPad Inc., San Diego, USA). […] Statistical analysis was carried out using one-way ANOVA with Bonferroni's multiple comparison test.

[4] = biological target: T1, RXFP1 receptor; assay: competition with Eu-labelled H2 relaxin on HEK-293T cells expressing RXFP1
[5] = biological target: T4, RXFP4 receptor (UniProt Q8TDU9 1-374, limits assumed); assay: cell-based or functional assay
[6] = biological target: T3, RXFP3 receptor; assay: competition with 0.5 nM Eu-labelled INSL5A/H3 relaxinB on CHO-K1 cells expressing RXFP3
[7] = biological target: T3, RXFP3 receptor; assay: cell-based or functional assay
[8] = biological target: T4, RXFP4 receptor; assay: competition with 2.5 nM Eu-labelled mouse INSL5 on CHO-K1 cells expressing RXFP4
[9] = biological target: T3, RXFP3 receptor; assay: cell-based or functional assay; remark: listed apart in the source

T4 sequence (Q8TDU9 whole entry): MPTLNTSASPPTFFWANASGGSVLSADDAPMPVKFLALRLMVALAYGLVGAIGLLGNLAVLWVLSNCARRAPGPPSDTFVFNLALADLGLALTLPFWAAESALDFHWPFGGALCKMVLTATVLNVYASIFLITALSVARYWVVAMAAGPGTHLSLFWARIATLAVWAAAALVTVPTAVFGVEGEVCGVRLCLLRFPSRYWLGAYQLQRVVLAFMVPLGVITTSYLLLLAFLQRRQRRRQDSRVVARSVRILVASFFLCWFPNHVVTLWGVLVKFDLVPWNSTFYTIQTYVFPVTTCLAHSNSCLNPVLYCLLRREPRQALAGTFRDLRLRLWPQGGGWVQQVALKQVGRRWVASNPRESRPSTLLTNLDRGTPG

Molecule	binding result [4]	pEC50 (M), activation of RXFP4 [5]	other results
H2 relaxin: native human relaxin-2, cognate ligand of RXFP1 (chain 1 QLYSALANKCCHVGCTKRSLARFC; chain 2 DSWMEEVIKLCGRELVRAQIAICGMSTWS)			inhibition of TGF-β1 induced collagen compared to TGF-β1 alone [1]: 35%
H2 relaxin (from UniProt P04090 162-185; P04090 25-53) (ligand)			inhibition of TGF-β1-induced collagen in human dermal fibroblasts (BJ3 cells) [2]: 35%
CC[C@H](C)[C@@H]1NC(=O)[C@H](Cc2ccccc2)NC(=O)[C@H](CCC(=O)O)NC(=O)[C@H](CCCNC(=N)N)NC(=O)CNC(=O)[C@@H](NC(=O)[C@H](CC(C)C)NC(=O)[C@H](CCCNC(=N)N)NC(=O)[C@@H](NC(=O)CNC(=O)[C@H](Cc2ccc(O)cc2)NC(=O)[C@@H]2CCCN2C(=O)[C@H](C)NC(=O)[C@H](C)NC(=O)[C@@H](N)CCCNC(=N)N)C(C)C)CSSC[C@@H]2NC(=O)[C@@H](NC(=O)[C@H](CO)NC(=O)[C@H](CO)NC(=O)[C@H](CO)NC(=O)[C@H](CC(C)C)NC(=O)CNC(=O)[C@H](C)NC(=O)[C@H](CC(C)C)NC(=O)[C@@H](NC(=O)[C@@H](N)CC(=O)O)C(C)C)CSSC[C@H](NC(=O)CNC(=O)[C@H](Cc3c[nH]c4ccccc34)NC(=O)[C@H](CCCCN)NC2=O)C(=O)N[C@@H](CO)C(=O)N[C@@H](CCCCN)C(=O)N[C@@H](CO)C(=O)N[C@@H](CCC(=O)O)C(=O)N[C@@H]([C@@H](C)CC)C(=O)N[C@@H](CO)C(=O)N[C@@H](CO)C(=O)N[C@@H](CC(C)C)C(=O)N[C@H](C(=O)O)CSSC[C@@H](C(=O)NCC(=O)NCC(=O)N[C@@H](CO)C(=O)N[C@@H](CCCNC(=N)N)C(=O)N[C@@H](Cc2c[nH]c3ccccc23)C(=O)O)NC(=O)[C@H]([C@@H](C)O)NC(=O)[C@H](Cc2ccccc2)NC(=O)[C@H]([C@@H](C)CC)NC(=O)[C@H](C(C)C)NC(=O)[C@H](C)NC(=O)[C@H](CCCNC(=N)N)NC1=O [H3 relaxin]			activity at 0.01 µM [3]: ~50%
B1	no binding (tested: <5 (pIC50/pKi, M))	8.1 M (as -log10)	
B2		8.94 M (as -log10)	pEC50 (M), cAMP accumulation in HEK-293 cells expressing RXFP1 [2]: 8.74 M (as -log10)
B3			pKi [6]: 7.3 M (as -log10); pEC50 (M), cAMP accumulation in HEK-293 cells expressing RXFP1 [2]: 6.23 M (as -log10); pEC50 (M), inhibition of forskolin-induced cAMP, reporter gene assay in CHO-K1 cells expressing RXFP3 [7]: 7.9 M (as -log10)
B4	no binding (tested: <5 (pIC50/pKi, M))	7.7 M (as -log10)	pIC50 [8]: 7.1 M (as -log10); pEC50, ERK1/2 phosphorylation in stable CHO-RXFP3 cells (AlphaScreen) [9]: 10.4 -log10 (M not printed)
B5		8.51 M (as -log10)	pIC50 [8]: 7.33 M (as -log10)
B6	no binding (tested: <5 (pIC50/pKi, M))	7.85 M (as -log10)	
B7	no binding (tested: <5 (pIC50/pKi, M))	8.46 M (as -log10)	
